# Measurements from CN113416248A (INST MILITARY MEDICINE ACADEMY MILITARY SCIENCES PLA, dated 2021).
# B1: 抗肠毒素的纳米抗体 (anti-SEB nanobody, heavy chain variable region SEQ ID NO: 8) (VHH)
# VHH: QVQLVESGGGSVQAGASLTLSCVVSVRTDSYAMGWMRQAPGKEREVIAGVSWSGQSTTYADSVKGRFTISRDNAKRAVYLQMGNLKPEDTAVYYCAMGRAPFYIGLTSEPEAYESWGQGTQVTVSL
# Target: T1, 金黄色葡萄球菌B型肠毒素(SEB)抗原 (Staphylococcus aureus enterotoxin B) (Staphylococcus aureus, UniProt P01552 28-266)
# T1 sequence: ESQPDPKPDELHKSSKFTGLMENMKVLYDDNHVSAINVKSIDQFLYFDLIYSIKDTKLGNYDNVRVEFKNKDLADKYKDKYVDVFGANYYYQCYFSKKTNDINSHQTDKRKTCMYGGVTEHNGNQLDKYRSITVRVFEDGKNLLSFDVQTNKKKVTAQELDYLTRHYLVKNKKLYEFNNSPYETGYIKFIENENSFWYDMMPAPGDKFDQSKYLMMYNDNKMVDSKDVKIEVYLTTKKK
# Assay: monoclonal phage ELISA on coated SEB antigen, anti-M13-HRP, OD450
binder,measurement,value
B1,binding result,binds
